In patent publication US20140087995A1 (published 2014):
Numbered stars: 1 amine (or outer) side, 2 acyl side, 3 side chain; on linkers, the order of the positions; unused ones are H or OH. Bridge positions count the residues as written; N and C are the ends. Side chains are listed from the residue outwards. Ends that are not written are not given here. * marks the point of attachment. C20 diacid = O=C(O)CCCCCCCCCCCCCCCCCCC(=O)*; C18 diacid = O=C(O)CCCCCCCCCCCCCCCCC(=O)*; C16 diacid = O=C(O)CCCCCCCCCCCCCCC(=O)*; γGlu = O=C(O)[C@H](CCC(=O)[*:2])N[*:1]; C14 diacid = O=C(O)CCCCCCCCCCCCC(=O)*

T1: human calcitonin receptor (human, UniProt P30988 25-474)
T1 construct: whole, on cells; Membranes of a stably transfected BHK cell line (Assay VII); also called hCTR; hCT
T1 sequence (looked up): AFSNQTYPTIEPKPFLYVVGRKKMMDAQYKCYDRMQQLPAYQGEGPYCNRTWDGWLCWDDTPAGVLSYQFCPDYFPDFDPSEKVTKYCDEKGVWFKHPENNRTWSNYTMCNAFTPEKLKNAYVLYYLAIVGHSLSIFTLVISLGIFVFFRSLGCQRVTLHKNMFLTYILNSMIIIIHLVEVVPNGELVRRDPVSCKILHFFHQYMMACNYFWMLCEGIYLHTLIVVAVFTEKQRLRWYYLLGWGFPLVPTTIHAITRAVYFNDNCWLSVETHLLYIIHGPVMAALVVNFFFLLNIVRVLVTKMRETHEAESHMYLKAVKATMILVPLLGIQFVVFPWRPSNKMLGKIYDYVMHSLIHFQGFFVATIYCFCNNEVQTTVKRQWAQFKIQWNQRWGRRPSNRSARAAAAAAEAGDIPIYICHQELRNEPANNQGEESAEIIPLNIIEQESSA

T2: rat calcitonin receptor (rat, UniProt P32214 25-516)
T2 construct: whole, on cells; Membranes of transiently transfected BHK tk'ts 13 cells (Assay VIII); also called rCTR
T2 sequence (looked up): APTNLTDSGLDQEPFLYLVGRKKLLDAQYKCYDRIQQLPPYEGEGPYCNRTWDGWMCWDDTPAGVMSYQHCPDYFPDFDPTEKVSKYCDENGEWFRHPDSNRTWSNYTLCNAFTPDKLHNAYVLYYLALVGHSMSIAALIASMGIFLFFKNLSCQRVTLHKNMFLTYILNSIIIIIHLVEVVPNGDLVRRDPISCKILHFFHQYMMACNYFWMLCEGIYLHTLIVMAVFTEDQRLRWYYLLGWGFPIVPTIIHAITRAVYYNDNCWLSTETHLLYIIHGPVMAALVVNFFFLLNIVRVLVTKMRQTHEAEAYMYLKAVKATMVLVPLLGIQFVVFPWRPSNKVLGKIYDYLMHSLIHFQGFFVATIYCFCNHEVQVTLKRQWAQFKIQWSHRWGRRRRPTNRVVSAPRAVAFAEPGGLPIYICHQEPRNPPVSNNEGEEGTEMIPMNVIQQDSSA

T3: rat amylin receptor (rat calcitonin receptor + rat RAMP 3) (rat, UniProt P32214 25-516; Q9JJ73 23-147)
T3 construct: whole, on cells; Membranes of transiently transfected BHK tk'ts 13 cells (Assay VI); also called rAmylin-R; rat amylin 3(a) receptor
T3 sequence (looked up) 1: T2 sequence (looked up)
T3 sequence (looked up) 2: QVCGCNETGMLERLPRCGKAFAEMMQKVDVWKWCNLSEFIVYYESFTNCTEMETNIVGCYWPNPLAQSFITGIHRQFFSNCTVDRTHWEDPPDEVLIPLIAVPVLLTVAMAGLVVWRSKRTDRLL

B1: N^ε1-[(4S)-4-carboxy-4-(13-carboxytridecanoylamino)butanoyl]-[Arg17,Pro21,Pro27,His34]-h-amylin (peptide)
peptide: K([γGlu-C14 diacid])CNTATCATQRLANFLRHSSPNFGAIPSSTNVGHNTY-NH2
modifications: disulfide 2-7; N-terminus assumed
SMILES: CC[C@H](C)[C@H](NC(=O)[C@H](C)NC(=O)CNC(=O)[C@H](Cc1ccccc1)NC(=O)[C@H](CC(N)=O)NC(=O)[C@@H]1CCCN1C(=O)[C@H](CO)NC(=O)[C@H](CO)NC(=O)[C@H](Cc1c[nH]cn1)NC(=O)[C@H](CCCNC(=N)N)NC(=O)[C@H](CC(C)C)NC(=O)[C@H](Cc1ccccc1)NC(=O)[C@H](CC(N)=O)NC(=O)[C@H](C)NC(=O)[C@H](CC(C)C)NC(=O)[C@H](CCCNC(=N)N)NC(=O)[C@H](CCC(N)=O)NC(=O)[C@@H](NC(=O)[C@H](C)NC(=O)[C@@H]1CSSC[C@H](NC(=O)[C@@H](N)CCCCNC(=O)CC[C@H](NC(=O)CCCCCCCCCCCCC(=O)O)C(=O)O)C(=O)N[C@@H](CC(N)=O)C(=O)N[C@@H]([C@@H](C)O)C(=O)N[C@@H](C)C(=O)N[C@@H]([C@@H](C)O)C(=O)N1)[C@@H](C)O)C(=O)N1CCC[C@H]1C(=O)N[C@@H](CO)C(=O)N[C@@H](CO)C(=O)N[C@H](C(=O)N[C@@H](CC(N)=O)C(=O)N[C@H](C(=O)NCC(=O)N[C@@H](Cc1c[nH]cn1)C(=O)N[C@@H](CC(N)=O)C(=O)N[C@H](C(=O)N[C@@H](Cc1ccc(O)cc1)C(N)=O)[C@@H](C)O)C(C)C)[C@@H](C)O
B2: N^ε1-[(4S)-4-carboxy-4-(19-carboxynonadecanoylamino)butanoyl]-[Ala14,Arg17,Pro21,Pro27,His34]-h-amylin (peptide)
peptide: K([γGlu-C20 diacid])CNTATCATQRLAAFLRHSSPNFGAIPSSTNVGHNTY-NH2
modifications: disulfide 2-7; N-terminus assumed
SMILES: CC[C@H](C)[C@H](NC(=O)[C@H](C)NC(=O)CNC(=O)[C@H](Cc1ccccc1)NC(=O)[C@H](CC(N)=O)NC(=O)[C@@H]1CCCN1C(=O)[C@H](CO)NC(=O)[C@H](CO)NC(=O)[C@H](Cc1c[nH]cn1)NC(=O)[C@H](CCCNC(=N)N)NC(=O)[C@H](CC(C)C)NC(=O)[C@H](Cc1ccccc1)NC(=O)[C@H](C)NC(=O)[C@H](C)NC(=O)[C@H](CC(C)C)NC(=O)[C@H](CCCNC(=N)N)NC(=O)[C@H](CCC(N)=O)NC(=O)[C@@H](NC(=O)[C@H](C)NC(=O)[C@@H]1CSSC[C@H](NC(=O)[C@@H](N)CCCCNC(=O)CC[C@H](NC(=O)CCCCCCCCCCCCCCCCCCC(=O)O)C(=O)O)C(=O)N[C@@H](CC(N)=O)C(=O)N[C@@H]([C@@H](C)O)C(=O)N[C@@H](C)C(=O)N[C@@H]([C@@H](C)O)C(=O)N1)[C@@H](C)O)C(=O)N1CCC[C@H]1C(=O)N[C@@H](CO)C(=O)N[C@@H](CO)C(=O)N[C@H](C(=O)N[C@@H](CC(N)=O)C(=O)N[C@H](C(=O)NCC(=O)N[C@@H](Cc1c[nH]cn1)C(=O)N[C@@H](CC(N)=O)C(=O)N[C@H](C(=O)N[C@@H](Cc1ccc(O)cc1)C(N)=O)[C@@H](C)O)C(C)C)[C@@H](C)O
notes: also called compound 93
B3: N^ε1-[(4S)-4-carboxy-4-(17-carboxyheptadecanoylamino)butanoyl]-[Arg17,Pro21,Pro27,His34]-h-amylin (peptide)
peptide: K([γGlu-C18 diacid])CNTATCATQRLANFLRHSSPNFGAIPSSTNVGHNTY-NH2
modifications: disulfide 2-7; N-terminus assumed
SMILES: CC[C@H](C)[C@H](NC(=O)[C@H](C)NC(=O)CNC(=O)[C@H](Cc1ccccc1)NC(=O)[C@H](CC(N)=O)NC(=O)[C@@H]1CCCN1C(=O)[C@H](CO)NC(=O)[C@H](CO)NC(=O)[C@H](Cc1c[nH]cn1)NC(=O)[C@H](CCCNC(=N)N)NC(=O)[C@H](CC(C)C)NC(=O)[C@H](Cc1ccccc1)NC(=O)[C@H](CC(N)=O)NC(=O)[C@H](C)NC(=O)[C@H](CC(C)C)NC(=O)[C@H](CCCNC(=N)N)NC(=O)[C@H](CCC(N)=O)NC(=O)[C@@H](NC(=O)[C@H](C)NC(=O)[C@@H]1CSSC[C@H](NC(=O)[C@@H](N)CCCCNC(=O)CC[C@H](NC(=O)CCCCCCCCCCCCCCCCC(=O)O)C(=O)O)C(=O)N[C@@H](CC(N)=O)C(=O)N[C@@H]([C@@H](C)O)C(=O)N[C@@H](C)C(=O)N[C@@H]([C@@H](C)O)C(=O)N1)[C@@H](C)O)C(=O)N1CCC[C@H]1C(=O)N[C@@H](CO)C(=O)N[C@@H](CO)C(=O)N[C@H](C(=O)N[C@@H](CC(N)=O)C(=O)N[C@H](C(=O)NCC(=O)N[C@@H](Cc1c[nH]cn1)C(=O)N[C@@H](CC(N)=O)C(=O)N[C@H](C(=O)N[C@@H](Cc1ccc(O)cc1)C(N)=O)[C@@H](C)O)C(C)C)[C@@H](C)O
B4: N^ε1-[(4S)-4-carboxy-4-(15-carboxypentadecanoylamino)butanoyl]-[Arg17,Pro21,Pro27,His34]-h-amylin (peptide)
peptide: K([γGlu-C16 diacid])CNTATCATQRLANFLRHSSPNFGAIPSSTNVGHNTY-NH2
modifications: disulfide 2-7; N-terminus assumed
SMILES: CC[C@H](C)[C@H](NC(=O)[C@H](C)NC(=O)CNC(=O)[C@H](Cc1ccccc1)NC(=O)[C@H](CC(N)=O)NC(=O)[C@@H]1CCCN1C(=O)[C@H](CO)NC(=O)[C@H](CO)NC(=O)[C@H](Cc1c[nH]cn1)NC(=O)[C@H](CCCNC(=N)N)NC(=O)[C@H](CC(C)C)NC(=O)[C@H](Cc1ccccc1)NC(=O)[C@H](CC(N)=O)NC(=O)[C@H](C)NC(=O)[C@H](CC(C)C)NC(=O)[C@H](CCCNC(=N)N)NC(=O)[C@H](CCC(N)=O)NC(=O)[C@@H](NC(=O)[C@H](C)NC(=O)[C@@H]1CSSC[C@H](NC(=O)[C@@H](N)CCCCNC(=O)CC[C@H](NC(=O)CCCCCCCCCCCCCCC(=O)O)C(=O)O)C(=O)N[C@@H](CC(N)=O)C(=O)N[C@@H]([C@@H](C)O)C(=O)N[C@@H](C)C(=O)N[C@@H]([C@@H](C)O)C(=O)N1)[C@@H](C)O)C(=O)N1CCC[C@H]1C(=O)N[C@@H](CO)C(=O)N[C@@H](CO)C(=O)N[C@H](C(=O)N[C@@H](CC(N)=O)C(=O)N[C@H](C(=O)NCC(=O)N[C@@H](Cc1c[nH]cn1)C(=O)N[C@@H](CC(N)=O)C(=O)N[C@H](C(=O)N[C@@H](Cc1ccc(O)cc1)C(N)=O)[C@@H](C)O)C(C)C)[C@@H](C)O

Each binder was assayed against T1, human calcitonin receptor (assay: ratio IC50 human calcitonin receptor / IC50 human amylin receptor (reference)).
Procedure: The resulting pellet was resuspended, homogenized and centrifuged (20.000 rpm, 15 min) in a buffer containing 20 mM Na-HEPES and 0.1 mM EDTA (pH 7.4, buffer 2). The resulting pellet was resuspended in buffer 2 and protein concentration was measured (BCA protein Assay, Pierce). The homogenate was kept cold during the whole procedure. The membranes were kept at −80° C. until use. The assay was performed in a 384 well Optiplate (PerkinElmer) in a total volume of 40 ul. Membranes were mixed with SPA beads. Final concentration of membranes 35 ng/μL final and SPA beads was 0.05 mg/well. Test-compounds were dissolved in DMSO and further diluted in assay buffer (50 mM Hepes, pH 7.4, 1 mM CaCl2, 5 mM MgCl₂, 0.1% OA and 0.02% Tween20). […] The final mixture was incubated with shaking at 400 rpm for 120 min at 25° C. prior to centrifugation (1500 rpm, 10 min). Samples were analyzed on TopCounter™ (Packard). The IC₅₀ was calculated using (one site binding competition analysis) GraphPad Prism5 as a measure of receptor affinity.
Membranes were prepared in the following way; the cells were rinsed with PBS and incubated with Versene for approximately 5 min before harvesting. The cells were flushed with PBS and the cell-suspension was centrifuged for 5 min at 1000 rpm. Cells were homogenized (Ultrathurrax) in a buffer containing 20 mM Na-HEPES and 10 mM EDTA (pH 7.4) and centrifuged at 20.000 rpm for 15 min. The resulting pellet was resuspended, homogenized and centrifuged (20.000 rpm, 15 min) in a buffer containing 20 mM Na-HEPES and 0.1 mM EDTA (pH 7.4, buffer 2). The resulting pellet was resuspended in buffer 2 and protein concentration was measured (BCA protein Assay, Pierce). The homogenate was kept cold during the whole procedure. The membranes were kept at −80° C. until use. Assay was performed in a 384 well Optiplate (PerkinElmer) in a total volume of 40 ul. Membranes were mixed with SPA beads.

Ratio hCT/hAmylin binding | Binder
23.5 | B1
101 | B2
59.4 | B3
18.5 | B4

Each binder was assayed against T2, rat calcitonin receptor (assay: SPA competition with 125I-calcitonin, membranes of BHK cells with rat calcitonin receptor (Assay VIII)).

IC50 [nM] | Binder
707 | B1
131 | B2
47 | B3
404 | B4

What follows are binders tested against T3, rat amylin receptor (rat calcitonin …) (assay: SPA competition with 125I-rat amylin, membranes of BHK cells with rat calcitonin receptor + rat RAMP3 (Assay VI)).

IC50 [nM] | Binder
2.52 | B1
1.58 | B2
1.17 | B3
1.24 | B4

The binders below were run against T2, rat calcitonin receptor (assay: ratio IC50 rat calcitonin receptor / IC50 rat amylin receptor (reference)).

Ratio rCT/rAmylin binding | Binder
280 | B1
83.2 | B2
40.3 | B3
327 | B4
